This is an account of results in PMC5893306 (Molecular pharmaceutics, 2018).

This data set can be described thus: Rat pharmacokinetics, IV and SC. In kind it is in vivo, Sprague Dawley rats. Conditions: for Vd / half-life / Tmax / bioavailability / clearance: Sprague-Dawley, rat, plasma.
Setting [1] is: rats, IV, compared to PIE12-trimer.

A value given as a limit tells only on which side of the number the result lay.

Where the note is “iv”, `CCCCCCCCCCCCCCCCSC1CC(=O)N(CCC(=O)NCCOCCOCCOCCOCCOCCOCCOCCOCCOCCOCCOCCOCCOCCOCCOCCOCCOCCOCCOCCOCCOCCOCCOCCOCCC(=O)NC(COCCC(=O)NCCOCCOCCOCCOCCC(=O)NCCCC[C@@H](NC(=O)CNC(=O)[C@@H](CC(C)C)NC(=O)[C@@H](CCC(=O)O)NC(=O)[C@H]2CSSC[C@@H](NC(=O)[C@H]3CCCN3C(=O)[C@@H](Cc3c[nH]cn3)NC(C)=O)C(=O)N[C@H](CC(=O)O)C(=O)N[C@H](Cc3ccc(O)cc3)C(=O)N3CCC[C@@H]3C(=O)N[C@H](CCC(=O)O)C(=O)N[C@H](Cc3c[nH]c4ccccc34)C(=O)N[C@H](CCC(N)=O)C(=O)N[C@H](Cc3c[nH]c4ccccc34)C(=O)N[C@H](CC(C)C)C(=O)N2)C(N)=O)(COCCC(=O)NCCOCCOCCOCCOCCC(=O)NCCCC[C@@H](NC(=O)CNC(=O)[C@@H](CC(C)C)NC(=O)[C@@H](CCC(=O)O)NC(=O)[C@H]2CSSC[C@@H](NC(=O)[C@H]3CCCN3C(=O)[C@@H](Cc3c[nH]cn3)NC(C)=O)C(=O)N[C@H](CC(=O)O)C(=O)N[C@H](Cc3ccc(O)cc3)C(=O)N3CCC[C@@H]3C(=O)N[C@H](CCC(=O)O)C(=O)N[C@H](Cc3c[nH]c4ccccc34)C(=O)N[C@H](CCC(N)=O)C(=O)N[C@H](Cc3c[nH]c4ccccc34)C(=O)N[C@H](CC(C)C)C(=O)N2)C(N)=O)COCCC(=O)NCCOCCOCCOCCOCCC(=O)NCCCC[C@@H](NC(=O)CNC(=O)[C@@H](CC(C)C)NC(=O)[C@@H](CCC(=O)O)NC(=O)[C@H]2CSSC[C@@H](NC(=O)[C@H]3CCCN3C(=O)[C@@H](Cc3c[nH]cn3)NC(C)=O)C(=O)N[C@H](CC(=O)O)C(=O)N[C@H](Cc3ccc(O)cc3)C(=O)N3CCC[C@@H]3C(=O)N[C@H](CCC(=O)O)C(=O)N[C@H](Cc3c[nH]c4ccccc34)C(=O)N[C@H](CCC(N)=O)C(=O)N[C@H](Cc3c[nH]c4ccccc34)C(=O)N[C@H](CC(C)C)C(=O)N2)C(N)=O)C1=O` (stereo partly drawn) [C16-PIE12-trimer] gave a Vd of 0.137 L/kg and a half-life of 54 min. Further, for the setting “sc”, the time to peak (Tmax) amounted to 1 h, the bioavailability turned out to be 38% and the half-life is 72 min. Moreover, the “increase in half-life upon IV or SC dosing” value (rats, compared to PIE12-trimer) was less than 2 fold. Besides, under setting [1], the reduction of clearance was 5-8 fold.
Turning to `CCCCCCCCCCCCCCCC(=O)N[C@H](CSC1CC(=O)N(CCC(=O)NCCOCCOCCOCCOCCOCCOCCOCCOCCOCCOCCOCCOCCOCCOCCOCCOCCOCCOCCOCCOCCOCCOCCOCCOCCC(=O)NC(COCCC(=O)NCCOCCOCCOCCOCCC(=O)NCCCC[C@@H](NC(=O)CNC(=O)[C@@H](CC(C)C)NC(=O)[C@@H](CCC(=O)O)NC(=O)[C@H]2CSSC[C@@H](NC(=O)[C@H]3CCCN3C(=O)[C@@H](Cc3c[nH]cn3)NC(C)=O)C(=O)N[C@H](CC(=O)O)C(=O)N[C@H](Cc3ccc(O)cc3)C(=O)N3CCC[C@@H]3C(=O)N[C@H](CCC(=O)O)C(=O)N[C@H](Cc3c[nH]c4ccccc34)C(=O)N[C@H](CCC(N)=O)C(=O)N[C@H](Cc3c[nH]c4ccccc34)C(=O)N[C@H](CC(C)C)C(=O)N2)C(N)=O)(COCCC(=O)NCCOCCOCCOCCOCCC(=O)NCCCC[C@@H](NC(=O)CNC(=O)[C@@H](CC(C)C)NC(=O)[C@@H](CCC(=O)O)NC(=O)[C@H]2CSSC[C@@H](NC(=O)[C@H]3CCCN3C(=O)[C@@H](Cc3c[nH]cn3)NC(C)=O)C(=O)N[C@H](CC(=O)O)C(=O)N[C@H](Cc3ccc(O)cc3)C(=O)N3CCC[C@@H]3C(=O)N[C@H](CCC(=O)O)C(=O)N[C@H](Cc3c[nH]c4ccccc34)C(=O)N[C@H](CCC(N)=O)C(=O)N[C@H](Cc3c[nH]c4ccccc34)C(=O)N[C@H](CC(C)C)C(=O)N2)C(N)=O)COCCC(=O)NCCOCCOCCOCCOCCC(=O)NCCCC[C@@H](NC(=O)CNC(=O)[C@@H](CC(C)C)NC(=O)[C@@H](CCC(=O)O)NC(=O)[C@H]2CSSC[C@@H](NC(=O)[C@H]3CCCN3C(=O)[C@@H](Cc3c[nH]cn3)NC(C)=O)C(=O)N[C@H](CC(=O)O)C(=O)N[C@H](Cc3ccc(O)cc3)C(=O)N3CCC[C@@H]3C(=O)N[C@H](CCC(=O)O)C(=O)N[C@H](Cc3c[nH]c4ccccc34)C(=O)N[C@H](CCC(N)=O)C(=O)N[C@H](Cc3c[nH]c4ccccc34)C(=O)N[C@H](CC(C)C)C(=O)N2)C(N)=O)C1=O)C(=O)O` (stereo partly drawn) [Palm-PIE12-trimer], for the setting “iv”, the Vd came out at 0.144 L/kg and the half-life was 108 min. Besides, where the note is “sc”, the Tmax is 1 h and the half-life is 132 min. In addition, under setting [1], the “increase of IV half-life” value was determined as 3 fold and the reduction of clearance is on record as 14-18 fold. The “extension of apparent half-life upon SC dosing” value (rats, SC, based on terminal-phase elimination, compared to PIE12-trimer) is ~ 3 fold.
On to `CC(=O)N[C@H](Cc1c[nH]cn1)C(=O)N1CCC[C@@H]1C(=O)N[C@@H]1CSSC[C@H](C(=O)N[C@H](CCC(=O)O)C(=O)N[C@H](CC(C)C)C(=O)NCC(=O)N[C@H](CCCCNC(=O)CCOCCOCCOCCOCCNC(=O)CCOCC(C)(COCCC(=O)NCCOCCOCCOCCOCCC(=O)NCCCC[C@@H](NC(=O)CNC(=O)[C@@H](CC(C)C)NC(=O)[C@@H](CCC(=O)O)NC(=O)[C@H]2CSSC[C@@H](NC(=O)[C@H]3CCCN3C(=O)[C@@H](Cc3c[nH]cn3)NC(C)=O)C(=O)N[C@H](CC(=O)O)C(=O)N[C@H](Cc3ccc(O)cc3)C(=O)N3CCC[C@@H]3C(=O)N[C@H](CCC(=O)O)C(=O)N[C@H](Cc3c[nH]c4ccccc34)C(=O)N[C@H](CCC(N)=O)C(=O)N[C@H](Cc3c[nH]c4ccccc34)C(=O)N[C@H](CC(C)C)C(=O)N2)C(N)=O)COCCC(=O)NCCOCCOCCOCCOCCC(=O)NCCCC[C@@H](NC(=O)CNC(=O)[C@@H](CC(C)C)NC(=O)[C@@H](CCC(=O)O)NC(=O)[C@H]2CSSC[C@@H](NC(=O)[C@H]3CCCN3C(=O)[C@@H](Cc3c[nH]cn3)NC(C)=O)C(=O)N[C@H](CC(=O)O)C(=O)N[C@H](Cc3ccc(O)cc3)C(=O)N3CCC[C@@H]3C(=O)N[C@H](CCC(=O)O)C(=O)N[C@H](Cc3c[nH]c4ccccc34)C(=O)N[C@H](CCC(N)=O)C(=O)N[C@H](Cc3c[nH]c4ccccc34)C(=O)N[C@H](CC(C)C)C(=O)N2)C(N)=O)C(N)=O)NC(=O)[C@@H](CC(C)C)NC(=O)[C@@H](Cc2c[nH]c3ccccc23)NC(=O)[C@@H](CCC(N)=O)NC(=O)[C@@H](Cc2c[nH]c3ccccc23)NC(=O)[C@@H](CCC(=O)O)NC(=O)[C@H]2CCCN2C(=O)[C@@H](Cc2ccc(O)cc2)NC(=O)[C@@H](CC(=O)O)NC1=O` [PIE12-trimer], for which, under “iv”, the Vd was 0.704 L/kg, the clearance was 13.9 mL/min/kg and the half-life is 36 min. Further, where the note is “sc”, the time of peak concentration (Tmax) came to 0.5 h and the half-life is 48 min.
For the setting “iv”, `CCCCCCCCCCCCCCCCCCSC1CC(=O)N(CCC(=O)NCCOCCOCCOCCOCCOCCOCCOCCOCCOCCOCCOCCOCCOCCOCCOCCOCCOCCOCCOCCOCCOCCOCCOCCOCCC(=O)NC(COCCC(=O)NCCOCCOCCOCCOCCC(=O)NCCCC[C@@H](NC(=O)CNC(=O)[C@@H](CC(C)C)NC(=O)[C@@H](CCC(=O)O)NC(=O)[C@H]2CSSC[C@@H](NC(=O)[C@H]3CCCN3C(=O)[C@@H](Cc3c[nH]cn3)NC(C)=O)C(=O)N[C@H](CC(=O)O)C(=O)N[C@H](Cc3ccc(O)cc3)C(=O)N3CCC[C@@H]3C(=O)N[C@H](CCC(=O)O)C(=O)N[C@H](Cc3c[nH]c4ccccc34)C(=O)N[C@H](CCC(N)=O)C(=O)N[C@H](Cc3c[nH]c4ccccc34)C(=O)N[C@H](CC(C)C)C(=O)N2)C(N)=O)(COCCC(=O)NCCOCCOCCOCCOCCC(=O)NCCCC[C@@H](NC(=O)CNC(=O)[C@@H](CC(C)C)NC(=O)[C@@H](CCC(=O)O)NC(=O)[C@H]2CSSC[C@@H](NC(=O)[C@H]3CCCN3C(=O)[C@@H](Cc3c[nH]cn3)NC(C)=O)C(=O)N[C@H](CC(=O)O)C(=O)N[C@H](Cc3ccc(O)cc3)C(=O)N3CCC[C@@H]3C(=O)N[C@H](CCC(=O)O)C(=O)N[C@H](Cc3c[nH]c4ccccc34)C(=O)N[C@H](CCC(N)=O)C(=O)N[C@H](Cc3c[nH]c4ccccc34)C(=O)N[C@H](CC(C)C)C(=O)N2)C(N)=O)COCCC(=O)NCCOCCOCCOCCOCCC(=O)NCCCC[C@@H](NC(=O)CNC(=O)[C@@H](CC(C)C)NC(=O)[C@@H](CCC(=O)O)NC(=O)[C@H]2CSSC[C@@H](NC(=O)[C@H]3CCCN3C(=O)[C@@H](Cc3c[nH]cn3)NC(C)=O)C(=O)N[C@H](CC(=O)O)C(=O)N[C@H](Cc3ccc(O)cc3)C(=O)N3CCC[C@@H]3C(=O)N[C@H](CCC(=O)O)C(=O)N[C@H](Cc3c[nH]c4ccccc34)C(=O)N[C@H](CCC(N)=O)C(=O)N[C@H](Cc3c[nH]c4ccccc34)C(=O)N[C@H](CC(C)C)C(=O)N2)C(N)=O)C1=O` (stereo partly drawn) [C18-PIE12-trimer] showed a Vd of 0.227 L/kg, a clearance of 2.5 mL/min/kg and a half-life of 66 min. Besides, where the note is “sc”, the time of peak concentration (Tmax) turned out to be 2 h, the bioavailability is 94% and the half-life is 84 min. The “increase in half-life upon IV or SC dosing” value (rats, compared to PIE12-trimer) is less than 2 fold. Moreover, the reduction of clearance under setting [1] is listed as 5-8 fold.
